This note sets out measurements from the nanobody polyreactivity screen of Harvey et al. (2022).

The data set is described as follows: yeast display, Sf9 membrane polyspecificity reagent, FACS + sequencing; frameworks hold sequencing errors. In short, it runs like this:
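Genes from sorted yeast were amplified by colony PCR, read by MiSeq 2 × 250 sequencing and filtered on CDR length. These cells carried a synthetic nanobody library in Saccharomyces cerevisiae BJ5465 and were sorted by FACS into low and high (top ~1%) gates on anti-HA and streptavidin fluorescence. Polyreactivity is labelled according to the gate of origin.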
“QVQLVESGGGLVQAGGSLRLSCAASGSIFYYYAMGWYRQAPGKEREFVAAITKRADRTYYADSVKGRFTISRDNAKNTVYLQMNSLKPEDTAVYYCNADFVWRNGYLGFYRYDYWGQGTQVTVSS”: the “polyreactivity (PSR sort gate)” value is “low polyreactivity”. Consider “QVQLVESGGGLVQAGGSLRLSCAASGSIFYYYAMGWYRQAPGKERELVAAISRNGGSTSYADSVKGRFTISRDNAKNTVYLQMNSLKPEDTAVYYCNTYGGYKYDYWGQGTQVTVSS”, for which the “polyreactivity (PSR sort gate)” value is “low polyreactivity”. In the case of “QVQLVESGGGLVQAGGSLRLSCAASGSIFYYYAMGWYRQAPGKERELVAAISWCGGSTYYADSVKGRFTISRDNAKNTVYLQMNSLKPEDTAVYYCAAQRRYGDDYWGQGTQVTVSS”, the “polyreactivity (PSR sort gate)” value was “high polyreactivity”. On to “QVQLVESGGGLVQAGGSLRLSCAASGSIFYYYAMGWYRQAPGKERELVADISISGGSTYYADSVKGRFTISRDNAKNTVYLQMNSLKPEDTAVYYCAATDYLWEPTVSNWGYTFDSWGQGTQVTVSS”, for which the “polyreactivity (PSR sort gate)” value is listed as “low polyreactivity”. For the sequence “QVQLVESGGGLVQAGGSLRLSCAASGSIFYYYVMGWYRQAPGKEREFVAAISWGGDSTYYADSVKGRFTISRDNAKNTVYLQMNSLKPEDTAVYYCAAVRYNSRVSTTPSEMYYWGQGTQVTVSS”, the “polyreactivity (PSR sort gate)” value was “low polyreactivity”. Consider “QVQLVESGGGLVQAGGSLRLSCAASGSIFYYYVMGWYRQAPGKERELVAAISSGGGTNYADSVKGRFTISRDNAKNTVYLQLNRLKPEDTAVYYCAKASAYGLANDYDYWGQGTLVTVSS”, for which the “polyreactivity (PSR sort gate)” value is on record as “low polyreactivity”. In the case of “QVQLVESGGGLVQAGGSLRLSCAASGSIGYYVMGWYRQAPGKERELVAVITFGGASTYYADSVKGRFTISRDNAKNTVYLQMNSLKPEDTAVYYCARYQHRLVYGYGYWGQGTQVTVSS”, the “polyreactivity (PSR sort gate)” value is “low polyreactivity”. The same measure for “QVQLVESGGGLVQAGGSLRLSCAASGSIIARYAMGWYRQAPGKETELVAAINSGTSTNYADSVKGRFTISRDNAKNTVYFQMHCLKPEDTEVYYCNTQWYVDNDTYTQTDYDYWGQGTQVTVSS”: “low polyreactivity”. For “QVQLVESGGGLVQAGGSLRLSCAASGSIIARYAMGWYRQSPGKERELVAAITCSATSTYYADSVKGRFTISRDYAKNTVYLQLNSLKPEDTAVYYWNAGASYFLVISQSRRDYWGQGTQVTVSS”, the “polyreactivity (PSR sort gate)” value is “low polyreactivity”. For “QVQLVESGGGLVQAGGSLRLSCAASGSIIDYNVMGWYRQAPGKEREFVAGISSTGGSTYYADSVKGRFSNSRDNAKHTVYLQMNSLKPEDTAVYYCAAYWNRAFRLDYWGQGTQVTVSS”, the “polyreactivity (PSR sort gate)” value is listed as “high polyreactivity”. The result for “QVQLVESGGGLVQAGGSLRLSCAASGSIIDYYAMGWYRQAPGKERELVADITVTGDGTYYADSVKGRFTISRDNAKNTVYLQMNSLKPEDTAVYYCAADFWLVSFQWDFEYDYWGQGTQVTVSS” reads “low polyreactivity”; that for “QVQLVESGGGLVQAGGSLRLSCAASGSIIFNNAMGWYRQAPGKERELVAAITTGGSTYYADSVKGRFTISRDNAKNTVYLQMNSLKPEDTAVYYCAAVVVYPYRLGYDYWGQGTQVTVSS”, “low polyreactivity”; that for “QVQLVESGGGLVQAGGSLRLSCAASGSIIGFYAMGWYRQAPGKERELVARISKRGGITYYADSVKGRFTISRDNAKNTVDLQMNSLKPEDTAVYYCAVDRRVLWYHMDYWGQGTQVTLSS”, “high polyreactivity”.

“QVQLVESGGGLVQAGGSLRLSCAASGSIIGIYDMGWYRQAPGKERELVAAISWSGGSTYYADSVKGRFTISRDNAKNTVYLQMNSLKPEDTAFYYCAARGHYQYYWGQGTQVTVSS”: the “polyreactivity (PSR sort gate)” value is on record as “low polyreactivity”. The result for “QVQLVESGGGLVQAGGSLRLSCAASGSIIGRYAMGWYRQAPGKERELVAAISTGGGRTYYADSVKGRFTISRDSAKNTVYFQLNSLKPEDTAVYYCNAGPYKGWGRMDYWGQGTQVNVSS” reads “high polyreactivity”. For the sequence “QVQLVESGGGLVQAGGSLRLSCAASGSIIGRYTMGWYRQAPGKERELVAAISRSGGSTYYADSVKGRFTISRDNAKNTVYLQMNSLKPEDTAVYYCAKRTYTPRGERLYSSYDYWGQGTQVTVSS”, the “polyreactivity (PSR sort gate)” value is listed as “high polyreactivity”. Take “QVQLVESGGGLVQAGGSLRLSCAASGSIIGSNAMGWYRQAPGKERELVAAISRSGTRTYYADSVKGRFTISRDNAKNTVYLQMNSLKPEDTAVYYCATRGGGYWGQGTQVTVSS”: the “polyreactivity (PSR sort gate)” value is “high polyreactivity”. On to “QVQLVESGGGLVQAGGSLRLSCAASGSIIGTNVMGWYRQAPGKERELVASISYRDGTTYYADSVKGRFTISRDNAKNTVYLQMNSLKPEDTAVYYCAVANYYSYYWGQGTQVTVSS”, for which the “polyreactivity (PSR sort gate)” value was “low polyreactivity”. As to “QVQLVESGGGLVQAGGSLRLSCAASGSIIGYYAMGWYRQAPGKERELVAAISRTGGSTYYADSVKGRFTISRDNAKNTVFLPMNSLKPEDTAVYYCATRTYARHDYWGQGTQGTVSS”, the “polyreactivity (PSR sort gate)” value is reported as “high polyreactivity”. As to “QVQLVESGGGLVQAGGSLRLSCAASGSIILLYAMGWYRQAPGKERELVAAISRSGDSTHYADSVKGRFTISRDNAKNTVYLQMNSLKPEDTAVYYCAADGYHPYGGLYDYCGQGTQVTVSS”, the “polyreactivity (PSR sort gate)” value was “low polyreactivity”. Consider “QVQLVESGGGLVQAGGSLRLSCAASGSIIPRNVMGWYRQAPGKERDLVAAISSSGGSTSYADSVKGRFTISRDNAKNTVYLQMNSLKPEDTAVYYCNAPWQRYSAPWGQGYNYWGQGTQVTVSS”, for which the “polyreactivity (PSR sort gate)” value was “high polyreactivity”.

Consider “QVQLVESGGGLVQAGGSLRLSCAASGSIIQVYAMGWYRQAPGKERELVASITRTGGSTYYADSVKGSFTISRDNAKNTVYLQMNSLKPEDTAVYYCAARRVTSPFGSDSWGQGTQVTVSS”, for which the “polyreactivity (PSR sort gate)” value is “low polyreactivity”. In the case of “QVQLVESGGGLVQAGGSLRLSCAASGSIIRDNAMGWYRQAPGKERELVAAISVSGGRTYYADSVKGRFTISRDNAKNTVYLQMNSLKPEDTAVYYCAALRRPSYPGRFAELDYWGQGTQVTVSS”, the “polyreactivity (PSR sort gate)” value is on record as “high polyreactivity”.

“QVQLVESGGGLVQAGGSLRLSCAASGSIIRINAMGWYRQAPGKERELVAAISTRSGRTYYADSVKGRFTISRDNAKNTVYLQLNSLKPEDTAFYYCARYRTQASGYGGYHYWGQGTQVTVSS”: the “polyreactivity (PSR sort gate)” value is on record as “high polyreactivity”. Take “QVQLVESGGGLVQAGGSLRLSCAASGSIISGYAMGWYRQAPGQERELVAAISRSGGRTYYADSVKGRFTISRDNAKNTVYLQMNSLKPEETAVYYCAAKIYIPRGYDYWGQGTQVTVSS”: the “polyreactivity (PSR sort gate)” value is “high polyreactivity”. Regarding “QVQLVESGGGLVQAGGSLRLSCAASGSIISGYAMGWYRQAPGTERELVAAISSSGGRTYYADSVKGRFTISRDNAKNTVYLQMNSLKPEDTAVYYCAAAYTITYDYWGQGTQVTVSS”, the “polyreactivity (PSR sort gate)” value was “high polyreactivity”. Turning to “QVQLVESGGGLVQAGGSLRLSCAASGSIISRNAMGWYRQAPGKERELVATIRYRGGSTYYADSVKGRFTISRDNAKNTVYLQMNSLKPEDTAVYYCAARRSHPPDPRFRYGYWGQGTQVTVSS”, the “polyreactivity (PSR sort gate)” value is recorded as “high polyreactivity”.

With “QVQLVESGGGLVQAGGSLRLSCAASGSIISYYAMGWYRQAPGKEWELVAAISWSGGSTYYADSVKGRFTISRDNAKNTVYLQRNSLTPEDTAVYYCAKYAYPRSRYTPYGSYDYWGQGTQVTVSS”, the “polyreactivity (PSR sort gate)” value was “high polyreactivity”. As for “QVQLVESGGGLVQAGGSLRLSCAASGSIITWYAMGWYRQAPGKERELVAAISNSDSSTYYADSVKGRFTISRDNAKNTVYLQMNILKPEDTAVYYCAAEYGLAWYNFEHWGQGTQVTVSS”, the “polyreactivity (PSR sort gate)” value is listed as “high polyreactivity”. On to “QVQLVESGGGLVQAGGSLRLSCAASGSIIVDNAMGWYRQAHGKERELVAAITDSGGRTYYADSVKGRYTISRDNAKNTVYLQMNSLKPEDTAVYYCNKQYIYTGRYSDGFDYCGQGTQVTVSS”, for which the “polyreactivity (PSR sort gate)” value is on record as “low polyreactivity”.

Take “QVQLVESGGGLVQAGGSLRLSCAASGSIIVNYDMGWYRQAPGKERELVAAISSGGSTKYADSVKGRFTISRDNAKNTVYLQMNSLKPEDTAVYYCAAGKHVTFSYEYRMDYWGQGTQVTVSS”: the “polyreactivity (PSR sort gate)” value is “low polyreactivity”. As for “QVQLVESGGGLVQAGGSLRLSCAASGSIIVRNALGWYRQEPGTERELVAAISWGGGRTYYADSVKGRFTISRDNAKNTVYLQMNSLKPEDTAVYYCAAVHRAVQMGYWGQGTQVTVSS”, the “polyreactivity (PSR sort gate)” value was “high polyreactivity”. The result for “QVQLVESGGGLVQAGGSLRLSCAASGSIIVRYAMGWYRQAPGKERALVATITFRDTSTYYADSVKGRFTITRDNAKNTVYLQMNSLKPEDTAVYYCAAVRADLWDIARYDYWGQGTQVTVSS” reads “low polyreactivity”.

On to “QVQLVESGGGLVQAGGSLRLSCAASGSIIYFNAMGWYRQAPGKERELVAAITRSGGSTYYADSVKGRFTISRDNAKNTVYLQMNSLKPEDTAVYYCAAEVWRTYSVEYDYWGQGTQVTVSS”, for which the “polyreactivity (PSR sort gate)” value was “high polyreactivity”.

For the sequence “QVQLVESGGGLVQAGGSLRLSCAASGSIIYHYAMGWYRQAPGKERELVAAITSSGGSTYYADSVKGRFTISRDNAKNTVYLQMNSLKPEDTEVYYCAVESRGRAGGNYWGQGTQVTVSS”, the “polyreactivity (PSR sort gate)” value is reported as “low polyreactivity”. As for “QVQLVESGGGLVQAGGSLRLSCAASGSIIYLYAMGWYRQAPGKERELVAAINDDAGSTYYADSVKGRFTISRDNAKNTVYLQMNSLKPEDTAVYYCNAGSRSTEYDYWGQGTQVTVSS”, the “polyreactivity (PSR sort gate)” value is listed as “low polyreactivity”.

For the sequence “QVQLVESGGGLVQAGGSLRLSCAASGSILAIYAMGWYRQAPGKERELVAAITWSGDSTYYADSVKGRFTISRDNAKNTVYLQMNSLKPEDTAVYYCAAGPGYWYEHEYWGQGTQVTVSS”, the “polyreactivity (PSR sort gate)” value was “low polyreactivity”. “QVQLVESGGGLVQAGGSLRLSCAASGSILALYTMGWYRQAPGKEREFVATITSSDGSTYYADSVKGRFTISRDNAKNTVYLQMNSLKPEDTAVYYCNARGSVYYLKFDYWGQGTQVTVSS”: the “polyreactivity (PSR sort gate)” value is listed as “low polyreactivity”. Turning to “QVQLVESGGGLVQAGGSLRLSCAASGSILAYNAMGWYRQAPGKEREFVAAITGGVGSTYYADSVKGRFTISRDNAKNTVYLQMNSLKPEDTAVYYCAKRTYHEYNNQFVKYYYWGQGTQVTVSS”, the “polyreactivity (PSR sort gate)” value is “high polyreactivity”.

As to “QVQLVESGGGLVQAGGSLRLSCAASGSILAYNAMGWYRQAPGKERELVASISKSGSSTYADSVKGRFTISRDNAKNTVYLQMNSLNPEDTAVYYCNARYYFSYYAFDYWGQGTQVTVSS”, the “polyreactivity (PSR sort gate)” value is given as “low polyreactivity”. The same measure for “QVQLVESGGGLVQAGGSLRLSCAASGSILDFNAMGWYRQAPGKERELVAAISDSSGSTFYAVSVKGRFTISRDNAKNTVYLLMISLKPEDTAVYYCAARLGFYPYGYTSWYTVYFWGQGTQVTVSS”: “low polyreactivity”.
